Laboratory results: paper PMC4506781

Columns and labels:
Experiment in all cases: cross-linking
[1] = biological target: CA P207C/T216C in isolated HIV-1 cores (R9.P207C/T216C) (HIV-1)
[2] = biological target: HIV-1 CA P207C/T216C, assembled into tubes (HIV-1)
[3] = biological target: HIV-1 CA A14C/E45C, assembled into tubes (HIV-1)
[4] = biological target: CA A14C/E45C in isolated HIV-1 cores (R9.A14C/E45C) (HIV-1)

“CA P207C/T216C in isolated HIV-1 cores (R9.P207C/T216C) (natural protein)” was tested, and the stoichiometry N [1] was 3.
With “HIV-1 CA P207C/T216C, assembled into tubes (natural protein)” the stoichiometry N [2] was 3.
With “HIV-1 CA A14C/E45C, assembled into tubes (natural protein)” the stoichiometry N [3] was 6.
“CA A14C/E45C in isolated HIV-1 cores (R9.A14C/E45C) (natural protein)” was tested, and the stoichiometry N [4] was 6.
